Legend:
[1] = molecular target: mouse melanocortin 1 receptor (mouse) (UniProt Q01727)
[2] = molecular target: mouse melanocortin 4 receptor (mouse) (UniProt P56450)
Chain of UniProt P56450 (P56450 whole entry): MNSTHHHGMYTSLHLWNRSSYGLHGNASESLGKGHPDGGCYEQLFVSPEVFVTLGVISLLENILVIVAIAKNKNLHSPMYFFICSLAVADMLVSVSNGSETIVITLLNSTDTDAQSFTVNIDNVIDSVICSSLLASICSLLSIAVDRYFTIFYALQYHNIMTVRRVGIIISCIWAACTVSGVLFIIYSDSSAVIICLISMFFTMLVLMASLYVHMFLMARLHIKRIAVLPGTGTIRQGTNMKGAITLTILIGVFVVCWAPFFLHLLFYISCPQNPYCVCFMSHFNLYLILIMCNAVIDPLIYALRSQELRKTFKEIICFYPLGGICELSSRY

Chain of UniProt Q01727 (Q01727 whole entry): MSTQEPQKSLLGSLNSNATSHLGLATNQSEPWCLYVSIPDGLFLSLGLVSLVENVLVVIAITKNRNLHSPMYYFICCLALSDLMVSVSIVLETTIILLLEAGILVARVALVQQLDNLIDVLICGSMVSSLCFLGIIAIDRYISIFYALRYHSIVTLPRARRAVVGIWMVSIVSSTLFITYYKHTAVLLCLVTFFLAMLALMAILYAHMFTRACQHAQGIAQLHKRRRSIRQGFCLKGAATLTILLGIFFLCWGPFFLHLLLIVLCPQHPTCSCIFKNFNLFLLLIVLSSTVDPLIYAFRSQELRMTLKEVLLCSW

Substance “α-melanocyte-stimulating hormone (peptide)” has an EC50 of cAMP production (EPAC BRET sensor), HEK293 cells expressing mMC1R, 3 min [1] of 4.8 nM and an EC50 of cAMP production (EPAC BRET sensor), HEK293 cells expressing mMC4R, 3 min [2] of 11.5 nM.

Source: publication doi:10.1101/2025.08.08.669345
